± gives the half width of the 95% confidence interval.
Experiments:
[1] = folding stability dG unfold from trypsin proteolysis; higher = more stable
Method in brief: (§1)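 Designed mini-proteins (under 80 residues, no cysteine) in a PA-tagged cDNA display construct were digested with trypsin and chymotrypsin. Each protease was used at 11 concentrations (threefold dilutions) plus a no-protease condition, followed by sequencing. K50 was inferred by Bayesian fitting of sequencing counts, and unfolding free energy was derived against a sequence-predicted unfolded-state K50 and a shared folded-state K50, per protease or combined. Only designs with AlphaFold2 dimer inter-PAE above 15 were kept.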

[2] = folding stability dG unfold from chymotrypsin proteolysis; higher = more stable
Method in brief: as §1

[3] = folding stability dG unfold (combined trypsin and chymotrypsin); higher = more stable
Method in brief: as §1

Sequence | folding stability dG unfold [1] | folding stability dG unfold [2] | folding stability dG unfold [3]
SAGGSAAVDLSERPPALPVPLKVEVIPIPETGSSLVLVTHPDGFVLLARVNPEGEVELLSAFSLDDSAGGSA [r15_790_TrMRF] | 6.51 ± 0.276 kJ/mol | 12 ± 0.31 kJ/mol | 10.5 ± 0.586 kJ/mol
SAGGSAAVTITSVPPDGTIRATATNPTNGETVTITFSPETSPEEAVAAIQKELGGPVPVTAVTPAGSAGGSA [r15_544_JUSTAS] | 4.08 ± 0.138 kJ/mol | 6.57 ± 0.259 kJ/mol | 5.94 ± 0.418 kJ/mol
SAGGSADDVKIKVEYERNPENGYGQITVEVEDPDGKDLKVEIMFPNMTPEEMEKQAKDIAKEIAKKSAGGSA [r15_526_TrROS] | -2.2 ± 0.879 kJ/mol | 5.28 ± 0.795 kJ/mol | 3.01 ± 0.962 kJ/mol
SAGGSADELVVRLRVRDPRTERPLEIDLPVPASLTPEEAIARAERLAAAFRSLGLETEVEVEPVPRSAGGSA [r15_268_TrMRF] | 6.09 ± 0.146 kJ/mol | 7.87 ± 0.176 kJ/mol | 7.22 ± 0.192 kJ/mol
SAGGSADENKKPMYFIMVKIEIKFGGKDHKIEIMIPLDNVEKLAKNIAEELGMEIKDVTVSLYPIDSAGGSA [r15_535_TrROS] | 11.7 ± 0.544 kJ/mol | 17.5 ± 0.502 kJ/mol | 15.8 ± 0.628 kJ/mol
SAGGSADNIEFKFPGIEEVTVWPDKIMFKLPNGYYYVITINNIDEIEIIEVIPPVPPPPPEDPDDKSAGGSA [r15_393_TrROS] | 9.95 ± 1.63 kJ/mol | 9.58 ± 0.46 kJ/mol | 10 ± 1.42 kJ/mol
SAGGSADSVTFTDPNVEEQIVIPPYVIFKYPDGSVRIIAFDDGDKAEILEEIPFVPPLEPLHPDLESAGGSA [r15_393_TrMRF] | 3.52 ± 0.126 kJ/mol | 4.66 ± 0.318 kJ/mol | 4.44 ± 0.711 kJ/mol
SAGGSADYVFVRIEVRDPKNKQPMSIMIPVPPDMTPDEAIEEAEMIANTFKEKGLEITVEVEPMPPSAGGSA [r15_268_TrROS] | 6.04 ± 1 kJ/mol | 6.52 ± 0.544 kJ/mol | 6.06 ± 0.92 kJ/mol
SAGGSAEEAEELARRLAAELQAETGLEVTVEVRYDEETDTVVIRMTVRDRATGEERTLELTLRLPDSAGGSA [r15_464_TrROS_Hall] | 12.7 ± 0.264 kJ/mol | 15.6 ± 0.218 kJ/mol | 14.7 ± 0.247 kJ/mol
SAGGSAEEEVVETEVVYDPETKELHVRTKVFKPKPEITIEVDMSLEEVKALLEELTGRKIDRVEIKSAGGSA [r15_101_TrROS_Hall] | 1.81 ± 0.146 kJ/mol | 7.03 ± 0.209 kJ/mol | 5.59 ± 0.351 kJ/mol
SAGGSAEIAEKNGFKITVELHRYNDYIMVEIEIRWPGGQEFTVTIMIKIKIVPPKPPVDPNDPDNNSAGGSA [r15_843_TrROS] | 18.7 ± 2.55 kJ/mol | 18.7 ± 0.502 kJ/mol | 18.7 ± 2.13 kJ/mol
SAGGSAEIEGLEFEIVEVTEVRVLPDGTVEITLRVRLPDGSYLRITITVSPDGTVTIDIELLPADESAGGSA [r15_559_TrROS_Hall] | 18.9 ± 0.879 kJ/mol | 17.5 ± 0.418 kJ/mol | 18.7 ± 0.753 kJ/mol
SAGGSAEIEITVTVPPEMTEEEIKEQLEAELQRLTGEKVEIVDIRVEEVNGELTVTVKIKIEPAPPSAGGSA [r15_105_TrROS_Hall] | 12.7 ± 1.17 kJ/mol | 11.3 ± 0.837 kJ/mol | 11.9 ± 1.26 kJ/mol
SAGGSAEIELPEGAKVEVTEVEVDGELYLRMKVVDEETGEVFVMEMRMRPDGEMEMEVKKIPKEELSAGGSA [r15_986_TrROS_Hall] | 5.45 ± 0.795 kJ/mol | 9.2 ± 1.42 kJ/mol | 7.74 ± 1.13 kJ/mol
SAGGSAEIEVTVYYDPETGEILVLINFPDETKFEVAVEEFKKLFEKVEAVKLPDGSVLVRSPLKDASAGGSA [r15_1057_TrMRF] | 6.91 ± 0.502 kJ/mol | 7.12 ± 0.297 kJ/mol | 6.65 ± 0.502 kJ/mol
SAGGSAEIWIWMPYDMIESLAKKAGDPNVKVEPVEPPDDNPGEPYWFKITLKDNGKPKREIEFWFPSAGGSA [r15_428_TrROS] | 5.61 ± 0.13 kJ/mol | 11.2 ± 0.188 kJ/mol | 9.34 ± 0.628 kJ/mol
SAGGSAELAKALGLKVTVEVEEEDGYLTVKVTVTGPNGEEKTFTMVIKIEPLPPPKKVKKGDKKNKSAGGSA [r15_843_TrROS_Hall] | 10.2 ± 1.09 kJ/mol | 15.7 ± 0.544 kJ/mol | 15.1 ± 0.879 kJ/mol
SAGGSAEPRPVVVVFEGTEEEVEELVQKVRDEGFAIDFKVEPLPDPRYYRATVIVRDPDGSWTAKLSAGGSA [r15_177_TrMRF] | 8.67 ± 0.192 kJ/mol | 8.82 ± 0.172 kJ/mol | 8.85 ± 0.167 kJ/mol

Sequence | folding stability dG unfold [1] | folding stability dG unfold [2] | folding stability dG unfold [3]
SAGGSAETAIDLGPPNTTGVLEIEYFDENGNTRRATATFDPNPATISFNEPVEIPPNARIEIKPTSSAGGSA [r15_198_TrMRF] | -1.69 ± 0.879 kJ/mol | 3.59 ± 0.268 kJ/mol | 2.28 ± 0.586 kJ/mol
SAGGSAETITVMIPPNFLKKLKDQGIKIPPGYPWITITVTYNPDGKIKIKVQIQPMPPVSPEDMKKSAGGSA [r15_322_TrROS] | 6.01 ± 0.381 kJ/mol | 11.4 ± 1.26 kJ/mol | 9.6 ± 1.42 kJ/mol
SAGGSAETLVITLPPELEGLSEEELLALLKALLPPGAEITEIRVERLPDGSLRVTVTVRVPPPEEPSAGGSA [r15_451_TrROS_Hall] | 13.9 ± 1 kJ/mol | 9.12 ± 0.255 kJ/mol | 11.1 ± 0.628 kJ/mol
SAGGSAEVRVVAEPLPDDYLLVLVEFDSPEVLPEALEAIPGVVEVRAYRFLEEGRPRYRVLALVPASAGGSA [r15_344_TrMRF] | 5.85 ± 0.1 kJ/mol | 8.47 ± 0.247 kJ/mol | 7.52 ± 0.251 kJ/mol
SAGGSAEVVEREEYFEEKLPNGEKVKVRRIVTEITPIPGLPGYRVEYTVTVEIGDEWETYPLEVAESAGGSA [r15_465_JUSTAS] | 6.42 ± 0.335 kJ/mol | 6.32 ± 0.109 kJ/mol | 6.73 ± 0.268 kJ/mol
SAGGSAEVYKVKIKIERVLPNGEKVEEEITIEVEGMSEEELLALARELAAEPGVRIKEIEIEKLPPSAGGSA [r15_550_TrROS_Hall] | 20.2 ± 1 kJ/mol | 19 ± 0.795 kJ/mol | 19.5 ± 1.59 kJ/mol
SAGGSAFEEVKKKYPNAKWEKIGDEGDTAVYRLTFPGGEKILITVPTLPETDEPVVEVTYVPKGEESAGGSA [r15_547_JUSTAS] | 11.3 ± 0.389 kJ/mol | 11.89 ± 0.0711 kJ/mol | 11.8 ± 0.247 kJ/mol
SAGGSAFKLTFKNMKIESKMPNPDGQKMIRIEWPDGLSIMIHPPNAIWIMPKDDPEMPPGDMVPIDSAGGSA [r15_692_TrROS] | 2.91 ± 1.05 kJ/mol | 3.27 ± 1.17 kJ/mol | 3.99 ± 1.17 kJ/mol
SAGGSAFPTIAESPGVVKIEPLPDGTIKITFNTSEEAKEKIIEELKKLGNFNVEEDPEKPVLIVKKSAGGSA [r15_554_JUSTAS] | 7.13 ± 0.364 kJ/mol | 12.3 ± 0.247 kJ/mol | 10.9 ± 0.41 kJ/mol
SAGGSAGAPLVLAEVELDPETGEVRIRVYDPVTGKVYEYTTPGSLADAIREIERETGIPITEVVVASAGGSA [r15_101_TrMRF] | 14.5 ± 0.414 kJ/mol | 15.6 ± 0.305 kJ/mol | 15.2 ± 0.322 kJ/mol
SAGGSAGDPSLPQPQYIAFLLVTKPGGVEEPLEVEVKTEEEAEKIAQEVRDAGYEVELELRPAALLSAGGSA [r15_906_JUSTAS] | 7.18 ± 0.669 kJ/mol | 3.95 ± 1.17 kJ/mol | 6.04 ± 1.59 kJ/mol
SAGGSAGEIEGEEAAKLVEDALRALDPNVRVEYEPLPGEKPLLLVRVYRVDPESGAETPLATLLIGSAGGSA [r15_682_TrMRF] | 7.44 ± 0.209 kJ/mol | 11.3 ± 0.276 kJ/mol | 10 ± 0.322 kJ/mol
SAGGSAGETVYRVKIRVNGEELEIEVSAEELEALKALPGLEIELVRVEPAPPPEREETVVPEEEEESAGGSA [r15_443_TrROS_Hall] | 14.3 ± 0.711 kJ/mol | 14.1 ± 0.544 kJ/mol | 14.4 ± 0.502 kJ/mol
SAGGSAGGAANIPADQTLEFPTPDGYRRRLTYYPDEGLLVAEYVNPADGTPTFYTFDIPPDSTLSAGGSAGG [r6_406_TrMRF] | 3.62 ± 0.201 kJ/mol | 5.99 ± 0.351 kJ/mol | 5.04 ± 0.238 kJ/mol
SAGGSAGGAEIVEIEVRKEKRPDGKEVLTVKVKIKLENGEEIEVTVREGMTLEEALKKAKELLKSAGGSAGG [r6_986_TrROS_Hall] | 8.77 ± 0.36 kJ/mol | 11.5 ± 0.502 kJ/mol | 10.7 ± 0.586 kJ/mol
SAGGSAGGAELKPVGNDPETGKTAVILLKKPDPTGLVLALEGLSPEELKKLAEIPGYEAVAVLASAGGSAGG [r6_185_TrMRF] | 4.17 ± 0.155 kJ/mol | 0.892 ± 0.962 kJ/mol | 3.29 ± 0.297 kJ/mol
SAGGSAGGAPQGSTSSLTDPSTGLRYASTNPPGTSSSFTFPPSVSPEEVAARLRAQGVAGLNLSSAGGSAGG [r6_83_JUSTAS] | -3.39 ± 1.46 kJ/mol | 1.42 ± 0.305 kJ/mol | 0.284 ± 0.339 kJ/mol

— the supplement of paper PMC12764529
